We go through one molecule from patent US9725708B2, “Methods of modulating ubiquitin ligase activity” (Board of Supervisors of Louisiana State University and …, priority 2012, dated 2017).

The target of series [1] is E6AP ligase (Homo sapiens, UniProt Q05086). The following applies: surface plasmon resonance, Zanier et al. 2005; cited from earlier work. (SPR reads the build-up and loss of mass on a sensor chip optically.)
Another series concerns the target T1, E6APY533A (Homo sapiens, UniProt Q05086, Y556A).
T1 construct: made in house; host or cells: E. coli
T1 sequence (Q05086 1-872 isoform Q05086-3 Y553A): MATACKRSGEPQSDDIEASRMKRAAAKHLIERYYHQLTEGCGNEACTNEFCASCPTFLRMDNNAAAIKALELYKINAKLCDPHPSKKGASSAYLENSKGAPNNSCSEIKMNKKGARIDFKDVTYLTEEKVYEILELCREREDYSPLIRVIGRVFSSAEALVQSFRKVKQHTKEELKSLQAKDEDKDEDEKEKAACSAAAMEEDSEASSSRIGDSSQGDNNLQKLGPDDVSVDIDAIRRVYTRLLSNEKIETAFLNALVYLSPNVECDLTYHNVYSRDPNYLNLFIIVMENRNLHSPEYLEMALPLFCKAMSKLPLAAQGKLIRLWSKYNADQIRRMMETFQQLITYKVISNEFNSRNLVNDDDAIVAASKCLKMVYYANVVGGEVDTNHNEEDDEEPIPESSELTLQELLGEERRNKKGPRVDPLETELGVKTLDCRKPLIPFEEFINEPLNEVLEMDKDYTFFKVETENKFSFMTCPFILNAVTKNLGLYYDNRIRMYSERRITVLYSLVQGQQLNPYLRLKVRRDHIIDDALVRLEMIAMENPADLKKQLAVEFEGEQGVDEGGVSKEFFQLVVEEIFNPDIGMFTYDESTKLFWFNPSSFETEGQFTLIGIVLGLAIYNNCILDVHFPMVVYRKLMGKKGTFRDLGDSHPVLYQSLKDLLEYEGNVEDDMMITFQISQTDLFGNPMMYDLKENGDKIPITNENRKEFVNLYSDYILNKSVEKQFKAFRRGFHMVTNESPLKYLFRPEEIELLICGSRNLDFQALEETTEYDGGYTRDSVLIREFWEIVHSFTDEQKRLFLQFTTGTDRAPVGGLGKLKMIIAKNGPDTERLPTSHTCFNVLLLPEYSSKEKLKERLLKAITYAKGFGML
Kind of series: E6 rescue of 125I-polyubiquitin chain formation by E6APY533A. The class given is biochemical. As to conditions: 20 nM E6 protein. The method, then:
E6AP-catalyzed ^125I-Ubiquitin Conjugation Assay: The E3 ligase activity of recombinant E6AP ligase was quantitated in kinetic assays under initial velocity conditions (Ronchi et al., (2013) J. Biol. Chem. 288, 10349-10360, Ronchi & Haas (2012) Methods Mol. Biol. 832: 197-218). Rates of E6AP-catalyzed ^125I-polyubiquitin chain formation were measured at 37° C. in incubations of 25-μl final volume containing 50 mM Tris-HCl (pH 7.5), 1 mM ATP, 10 mM MgCl2, 1 mM DTT, 10 mM creatine phosphate, 1 IU of creatine phosphokinase, 5 μM ^125I-ubiquitin (approximately 1.5×10^4 cpm/pmol), 50 nM human Uba1, and the indicated concentrations of UbcH7 and E6AP ligase (Siepmann et al., (2003) J. Biol. Chem. 278: 9448-9457; Baboshina et al., (2001) J. Biol. Chem. 276: 39428-39437). […]
Polyubiquitin chain formation was measured by excising lanes between the top of the resolving gel and the top of the stacker gel, representing anchored and free ^125I-polyubiquitin chains, respectively, and quantitating associated ^125I-ubiquitin by γ-counting. Absolute rates of ^125I-polyubiquitin chain formation were calculated from the associated radioactivity and the corrected specific radioactivity for ^125I-ubiquitin. Datum points represent single assay determinations, and complete data sets were evaluated by non-linear regression analysis using GraFit version 5.0 (Erithicus). […]

The target of series [2] is T2, E6AP ligase (Homo sapiens, UniProt Q05086).
T2 construct: corresponding to full-length GST-E6AP; made in house; host or cells: E. coli
T2 sequence (Q05086 1-872 isoform Q05086-3): T1 sequence (Q05086 1-872 isoform Q05086-3 Y553A) with A553Y
The experiment in a line: E6AP-catalyzed 125I-polyubiquitin chain formation, initial rates. The class given is biochemical. Here is the method:
E6AP-catalyzed ^125I-Ubiquitin Conjugation Assay: The E3 ligase activity of recombinant E6AP ligase was quantitated in kinetic assays under initial velocity conditions (Ronchi et al., (2013) J. Biol. Chem. 288, 10349-10360, Ronchi & Haas (2012) Methods Mol. Biol. 832: 197-218). Rates of E6AP-catalyzed ^125I-polyubiquitin chain formation were measured at 37° C. in incubations of 25-μl final volume containing 50 mM Tris-HCl (pH 7.5), 1 mM ATP, 10 mM MgCl2, 1 mM DTT, 10 mM creatine phosphate, 1 IU of creatine phosphokinase, 5 μM ^125I-ubiquitin (approximately 1.5×10^4 cpm/pmol), 50 nM human Uba1, and the indicated concentrations of UbcH7 and E6AP ligase (Siepmann et al., (2003) J. Biol. Chem. 278: 9448-9457; Baboshina et al., (2001) J. Biol. Chem. 276: 39428-39437).
Reactions were initiated by the addition of ^125I-ubiquitin. After 10-30 min, the reactions were quenched by the addition of 25 μl of 2×SDS sample buffer containing 0.3% (v/v) β-mercaptoethanol, and then the samples were heated to 100° C. for 3 min. The polyubiquitin conjugates were resolved from free ^125I-ubiquitin by 12% (w/v) SDS-PAGE under reducing conditions at 4° C. and visualized by autoradiography of the dried gels.
Polyubiquitin chain formation was measured by excising lanes between the top of the resolving gel and the top of the stacker gel, representing anchored and free ^125I-polyubiquitin chains, respectively, and quantitating associated ^125I-ubiquitin by γ-counting. Absolute rates of ^125I-polyubiquitin chain formation were calculated from the associated radioactivity and the corrected specific radioactivity for ^125I-ubiquitin. Datum points represent single assay determinations, and complete data sets were evaluated by non-linear regression analysis using GraFit version 5.0 (Erithicus). Active Uba1, E2, and E6AP ligase were independently determined in parallel by their stoichiometric formation of ^125I-ubiquitin thioester.

Positions count from the first letter of the chain named. Like-named read-outs stand apart in the source and are kept apart here.

B1: E6 protein: recombinant human papilloma virus 16 E6 protein, 158 amino acids (protein)
chain: MHQKRTAMFQDPQERPRKLPQLCTELQTTIHDIILECVYCKQQLLRREVYDFAFRDLCIVYRDGNPYAVCDKCLKFYSKISEYRHYCYSLYGTTLEQQYNKPLCDLLIRCINCQKPLCPEEKQRHLDKKQRFHNIRGRWTGRCMSCCRSSRTRRETQL
On to B1, for which the Kd (commonly the free concentration of one partner at which half of the binding sites on the other are occupied at equilibrium, for simple one-to-one binding) in the series with E6AP ligase [1] was 4000 nM; with E6AP ligase [2] (from double reciprocal plot, His6-E6AP, read-out: Kd for E6 binding), 1.5 nM. Also, the increase in rate with E6APY533A is listed as 8 fold. The “effect on initial rate, wild-type protein” value with E6AP ligase [2] (20 nM E6 protein, 1 nM GST-E6AP) is “significantly enhanced”. In the series with E6AP ligase [2] (activation of E6AP ligase catalytic activity), the Kactivation turned out to be 1.5 nM. For the same molecule, the kcat (commonly the maximal rate divided by the concentration of active sites) in the series with E6AP ligase [2] (in the presence of 20 nM E6 protein, 0.4 nM His6-E6AP) stood at 0.81 ± 0.045 s⁻¹. For the same molecule, the “stimulation in E6AP ligase activity” value with E6AP ligase [2] (saturating E6 protein) was 14 fold. Moreover, the mode of action entry with E6AP ligase [2] (with respect to [UbcH7]o) is given as “non-essential activator”.
